Target: Psy2 with aa 25–129 deleted, fused to lexA-DBD (S. cerevisiae)
Assay: two-hybrid

percent reduction of the two-hybrid interaction: 50%
B1: DDC2 fused to B42-AD (natural protein)
chain: MRRETVGEFSSDDDDDILLELGTRPPRFTQIPPSSAALQTQIPTTLEVTTTTLNNKQSKNDNQLVNQLNKAQGEASMLRDKINFLNIEREKEKNIQAVKVNELQVKHLQELAKLKQELQKLEDEKKFLQMEARGKSKREVITNVKPPSTTLSTNTNTITPDSSSVAIEAKPQSPQSKKRKISDNLLKKNMVPLNPNRIIPDETSLFLESILLHQIIGADLSTIEILNRLKLDYITEFKFKNFVIAKGAPIGKSIVSLLLRCKKTLTLDRFIDTLLEDIAVLIKEISVHPNESKLAVPFLVALMYQIVQFRPSATHNLALKDCFLFICDLIRIYHHVLKVPIHESNMNLHVEPQIFQYELIDYLIISYSFDLLEGILRVLQSHPKQTYMEFFDENILKSFEFVYKLALTISYKPMVNVIFSAVEVVNIITSIILNMDNSSDLKSLISGSWWRDCITRLYALLEKEIKSGDVYNENVDTTTLHMSKYHDFFGLIRNIGDNELGGLISKLIYTDRLQSVPRVISKEDIGMDSDKFTAPIIGYKMEKWLLKLKDEVLNIFENLLMIYGDDATIVNGEMLIHSSKFLSREQALMIERYVGQDSPNLDLRCHLIEHTLTIIYRLWKDHFKQLREEQIKQVESQLIMSLWRFLVCQTETVTANEREMRDHRHLVDSLHDLTIKDQASYYEDAFEDLPEYIEEELKMQLNKRTGRIMQVKYDEKFQEMARTILESKSFDLTTLEEADSLYISMGL
